Test results from PMC7218409, “The protein architecture of the endocytic coat analyzed by FRET microscopy” (Molecular Systems Biology, 2020).
One block for each binder: values may come before it.

Key:
[1] = target: T1, Pan1, full length, with a C-terminal fluorescent tag (S. cerevisiae, UniProt P32521 1-1480); experiment: FRET or BRET; acceptor photobleaching in live yeast; inner cytoplasmic (nucleus and vacuole free) areas; GFP/mCherry or mTurquoise2/mNeonGreen pairs; conditions: partners not purified
T1 construct: Pan1, S. cerevisiae; gene tagged at its endogenous locus; Linker RTLQVD between protein and C-terminal tag; also called Pan1-mCherry; C-terminus of Pan1; source: S. cerevisiae, expressed from its endogenous locus, in live cells; not shown: GFP or mCherry, C-terminal, kept
T1 sequence (looked up): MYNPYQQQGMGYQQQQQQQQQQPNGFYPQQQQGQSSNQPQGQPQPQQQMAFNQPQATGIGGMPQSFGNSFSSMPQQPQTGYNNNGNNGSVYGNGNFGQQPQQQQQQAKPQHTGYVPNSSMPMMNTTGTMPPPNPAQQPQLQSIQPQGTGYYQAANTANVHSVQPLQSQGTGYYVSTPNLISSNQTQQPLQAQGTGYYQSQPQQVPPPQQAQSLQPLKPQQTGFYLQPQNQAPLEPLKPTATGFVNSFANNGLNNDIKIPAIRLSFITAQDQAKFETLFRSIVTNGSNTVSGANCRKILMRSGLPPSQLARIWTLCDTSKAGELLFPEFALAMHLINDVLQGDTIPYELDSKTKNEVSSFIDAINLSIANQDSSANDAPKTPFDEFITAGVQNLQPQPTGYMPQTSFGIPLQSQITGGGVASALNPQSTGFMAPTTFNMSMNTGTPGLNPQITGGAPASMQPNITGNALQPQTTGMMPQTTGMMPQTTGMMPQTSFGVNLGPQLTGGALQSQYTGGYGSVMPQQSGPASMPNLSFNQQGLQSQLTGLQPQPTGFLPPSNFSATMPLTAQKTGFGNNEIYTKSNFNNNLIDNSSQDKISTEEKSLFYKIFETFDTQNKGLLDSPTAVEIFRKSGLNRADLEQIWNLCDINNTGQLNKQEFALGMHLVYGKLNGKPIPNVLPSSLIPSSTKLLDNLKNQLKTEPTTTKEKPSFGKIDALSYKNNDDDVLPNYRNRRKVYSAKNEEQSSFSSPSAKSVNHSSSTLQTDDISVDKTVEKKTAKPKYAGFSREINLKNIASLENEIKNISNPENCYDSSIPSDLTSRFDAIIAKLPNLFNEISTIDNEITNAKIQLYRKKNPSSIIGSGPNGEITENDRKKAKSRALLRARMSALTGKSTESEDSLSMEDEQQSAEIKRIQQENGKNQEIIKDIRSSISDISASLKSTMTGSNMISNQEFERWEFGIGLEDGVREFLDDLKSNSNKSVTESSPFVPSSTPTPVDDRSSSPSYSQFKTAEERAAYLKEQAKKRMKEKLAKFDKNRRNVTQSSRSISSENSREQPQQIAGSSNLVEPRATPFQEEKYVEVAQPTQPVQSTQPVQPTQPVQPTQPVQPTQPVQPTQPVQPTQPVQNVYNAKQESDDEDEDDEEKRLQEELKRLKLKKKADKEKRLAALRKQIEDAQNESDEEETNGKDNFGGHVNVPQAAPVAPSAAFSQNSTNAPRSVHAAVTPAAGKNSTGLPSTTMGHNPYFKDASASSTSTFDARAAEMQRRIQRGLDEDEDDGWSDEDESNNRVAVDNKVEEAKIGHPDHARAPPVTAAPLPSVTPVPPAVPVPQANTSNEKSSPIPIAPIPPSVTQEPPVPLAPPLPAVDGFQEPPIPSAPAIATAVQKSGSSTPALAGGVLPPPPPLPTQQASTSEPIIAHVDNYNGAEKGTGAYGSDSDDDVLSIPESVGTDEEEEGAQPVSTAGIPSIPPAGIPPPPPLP

Ede1-mCherry = target: T2, Ede1-mCherry (S. cerevisiae, UniProt P34216 1-1381); experiment: as above; conditions: partners not purified
T2 construct: Ede1 (Eps15/R homolog), S. cerevisiae; gene tagged at its endogenous locus, no truncation told; Linker RTLQVD between protein and C-terminal tag; source: S. cerevisiae, expressed from its endogenous locus, in live cells; not shown: mCherry, C-terminal, kept
T2 sequence (looked up): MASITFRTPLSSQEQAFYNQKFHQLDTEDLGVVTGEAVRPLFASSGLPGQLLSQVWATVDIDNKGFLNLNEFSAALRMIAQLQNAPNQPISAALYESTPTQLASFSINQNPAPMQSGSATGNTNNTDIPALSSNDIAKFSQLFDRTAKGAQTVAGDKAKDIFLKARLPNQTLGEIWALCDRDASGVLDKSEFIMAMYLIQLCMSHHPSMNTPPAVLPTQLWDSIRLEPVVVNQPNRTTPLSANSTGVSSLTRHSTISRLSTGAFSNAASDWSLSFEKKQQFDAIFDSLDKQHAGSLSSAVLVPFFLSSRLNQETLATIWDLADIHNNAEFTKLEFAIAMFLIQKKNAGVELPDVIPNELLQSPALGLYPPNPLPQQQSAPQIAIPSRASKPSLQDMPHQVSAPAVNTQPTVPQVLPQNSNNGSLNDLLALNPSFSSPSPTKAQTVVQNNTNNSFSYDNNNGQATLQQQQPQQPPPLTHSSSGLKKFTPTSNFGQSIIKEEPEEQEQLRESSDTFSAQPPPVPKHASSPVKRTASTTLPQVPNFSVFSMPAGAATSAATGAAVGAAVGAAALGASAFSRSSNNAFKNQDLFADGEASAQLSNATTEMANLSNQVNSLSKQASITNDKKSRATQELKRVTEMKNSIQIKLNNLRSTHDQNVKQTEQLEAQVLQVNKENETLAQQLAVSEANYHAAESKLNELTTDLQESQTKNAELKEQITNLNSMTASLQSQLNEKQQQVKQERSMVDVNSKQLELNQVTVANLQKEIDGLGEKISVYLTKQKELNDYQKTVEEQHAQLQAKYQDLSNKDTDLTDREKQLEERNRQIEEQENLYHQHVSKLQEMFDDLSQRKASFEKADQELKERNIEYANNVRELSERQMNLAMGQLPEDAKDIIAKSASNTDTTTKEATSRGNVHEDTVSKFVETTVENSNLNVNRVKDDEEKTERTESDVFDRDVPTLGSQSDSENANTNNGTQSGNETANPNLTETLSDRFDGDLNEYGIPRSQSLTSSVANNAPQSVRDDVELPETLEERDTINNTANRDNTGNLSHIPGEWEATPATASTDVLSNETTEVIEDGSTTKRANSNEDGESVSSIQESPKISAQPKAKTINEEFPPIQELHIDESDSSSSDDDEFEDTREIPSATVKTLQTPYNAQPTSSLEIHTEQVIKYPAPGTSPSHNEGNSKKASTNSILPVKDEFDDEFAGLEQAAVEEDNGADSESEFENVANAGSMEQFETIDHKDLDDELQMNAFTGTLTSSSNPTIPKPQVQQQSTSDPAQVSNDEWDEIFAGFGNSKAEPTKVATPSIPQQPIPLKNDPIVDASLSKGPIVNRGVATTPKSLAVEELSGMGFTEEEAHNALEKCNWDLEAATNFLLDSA

FRET efficiency [1]: 4.5%
B1: GFP-End3 (natural protein, S. cerevisiae, UniProt P39013 1-349, looked up)
chain: MPKLEQFEIKKYWQIFSGLKPIENKVNHDQVLPILYNSKLDSSVLNKIWFLADIDDDDNLDFEEFVICMRLIFDMVNKNISSVPDELPDWLIPGSKVNLIKERKKRKQIENADLPPKKEIKVDWYMSPDDLNQYEKIYNSCAKLTDGTITFNELSTKLSTKFFNISKTDLNKVWSLINPQNLPSIDRDPTFYFIHCLRQRNDLGAEIPASLPNSLAEVCNKKQLSYDLRSSQPPTKRKEEANEVDNLRDNGQNSSSDSSGSNVLSNEDSIKQKYASLTDDQVANMREQLEGLLNYKKSEKTQGGSKLSKRINIRSITDDLDNIEQQVEVLENYLNNKRHELQALQAEIN
notes: End3, S. cerevisiae; gene tagged at its endogenous locus, no truncation told; Linker GS(GGGGS)3ATENNS between N-terminal tag and protein; also called N-terminus of End3; source: S. cerevisiae, expressed from its endogenous locus, in live cells; not shown: GFP, N-terminal, kept

FRET efficiency (Ede1-mCherry): 2.5%
B2: Syp1-GFP (natural protein, S. cerevisiae, UniProt P25623 1-870, looked up)
chain: MTEQRTKYADSILTTKSPYEATETIRIRLSQVKLLNKDFYLLFKELANLKRNYAQQLRKIIAENEDITKILNAQMIESNVLTPQEMSAFRFNSLGELRNVWDTVIEELKSDLKSSTEYYNTLDQQVVRELKESVENNTSWRESKDLHSKLSKNAASIEHYSKNNENSSHLEEARRQWDQQSPYLFELFETIDYNRLDTLKNCMLRFQTSFSDYLLNTTKECETVMTKFLAFEPQSEIDRFAKDASQYNFQLSSSSKEVVPNNASPASATGARPVSVSNGAANTEREKKSPQKDKRKSAFGNIGHRLASASSSLTHNDLMNNEFSDSTNNSSLKSKKSSHTLRSKVGSIFGRNKTKNKRQQQSSSNSHIQASITETPNNSSTRVSSTATSSIYQKQRRPTYSSSKSNNWTPGEASDTPPLPPHATPKNVDAPVTADTPPAQTFTPSEVPPSTPQQSSPPTAKEPDSSNLPKTVPISISQPPLQPQSKTKPLPVEPASPSISLPTATVDNQPSGQVDSRPLHIRAPALPPSRKQNFIHNRDSQLYDSLPNHGSGATPTSSSLSSIPQERPVSTLSSQITGELRELNPQATGSSTSLVGQSLFQHSSLDTSQFGLNASIAEVLNASFKDGMLQNSQLIGEIALNYLPNSVMNSPLPIGINLRINNGAKFEKVILNQAFIERVAPEEFKVNPSFIDSRTLGAIKYSIKEPIAPIVIHPVWRFESHQASVVLTVKMSPSLPDEISQIVIEDLVVFVNIDGANATSALSKPQGSFSKEKKRITWRFKEPVVLTRNGEGQRLIARFITDGLAHESAKGVITKFTISETDNVALPHSGAGSGITLTCQELDENNPFGGEWLDVNTKRTLTTGNYHGLA
notes: Syp1 (FCHo1/2 homolog), S. cerevisiae; gene tagged at its endogenous locus, no truncation told; Linker RTLQVD between protein and C-terminal tag; source: S. cerevisiae, expressed from its endogenous locus, in live cells; not shown: GFP, C-terminal, kept
